Results on one sequence are retold here after patent US7169604B1, “Method for PR-39 peptide mediated selective inhibition of IκBα degradation” (Beth Israel Deaconess Medical Center, priority 1998, dated 2007).

Ends that are not written are not given here.

The target in data set [1] is T1, IκBα-VCP (Homo sapiens, UniProt P25963+P55072).
T1 construct: endogenous in cells; host or cells: wild type ECV304
In words: IκBα-VCP binding (IκBα immunoprecipitation, anti-VCP Western blot) in ECV304 cells. The conditions noted are these: wild type ECV304 cells, 10 μM pretreatment, TNF-α 1 ng/ml. Type of data set: cell-based. The source says:
Wild type ECV304 cells (treated as described in FIG. 4C) were subjected to immunoprecipitation with anti-IκBα antibody (IκBα-IP) followed by Western blotting with anti-VCP-3 antibody (1:3000, dilution; a kind gift of Dr. C. C. Li (NIH)). Note the presence of 90 kD VCP band in the presence or absence of PR-39 treatment.
Pretreatment with PR-39 increased the amount of VCP in the IκBα immunoprecipitate (FIG. 4D) as would be expected given the increased amount of ubiquitinated forms of IκBα in the PR-39-treated cells.
In general terms: In western blotting, separated proteins are transferred to a membrane and probed.

The test system of data set [2] is ECV304 cells. The experiment in a line: Cell growth in culture (Coulter cell counts). Type of data set: cell-based, human. As to conditions: 10 μM, 48 hours. The protocol:
Prolonged exposure to proteasome inhibitors tend to induce apoptosis in cell culture. To assess the potential cytotoxicity of PR-39, ECV304 cells were cultured in the presence of 10 μM of PR-39, MG132 or lactacystin.
50,000 ECV304 cells were plated in 6 well plates in 10% FBS-M199 and synchronized by serum deprivation in 0.5% FBS-DMEM for 48 hr. At the end of that time, cell culture medium was changed to 10% FBS-M199 and 10 μM of PR-39, lactacystin or buffer (control) were added. Forty eight hours later cell counts were determined using a Coulter Counter (Coulter Instruments, Inc.). All experiments were performed in triplicate and repeated 2 times (mean±SD).

Data set [3] concerns IκBα. In words: IκBα phosphorylation in U937 cell culture. Type of data set: cell-based, human. As to conditions: U937 cells, 10 μM pretreatment, TNFα 1 ng/ml, 45 min. The protocol:
To explore potential mechanisms of this selective inhibition, the effect of peptide administration on IκBα phosphorylation and ubiquitination was studied. It is known that TNF-α treatment leads to phosphorylation of IκBα, which is required for its subsequent ubiquitination. The result is indicated by FIG. 4A.
U937 cells cultured in the absence (−) or presence (+) of pretreatment with 10 μM PR-39 were exposed to 1 ng/ml TNFα. 45 min later the cells were lysed and subjected to SDS-PAGE and Western blotting with anti-IκBα antibody. Note the increased amount of the typical-appearing phosphorylated IκKBα band in PR-39 treated cells.

For data set [4], the system named is IκBα. The experiment in a line: IκBα ubiquitination in HA-Ub expressing ECV304 cells. The format is cell-based, human. The conditions noted are these: 10 μM pretreatment, TNF-α 1 ng/ml. As for the experimental part:
ECV304 cells were stably transfected with a HA-tagged ubiquitin plasmid MT123 (kind gift of Dr. G. Walz, BIDMC). The clone with the highest expression of HA-ubiquitin was treated with 10 μM PR39 for 45 min followed by treatment with 1 ng/ml TNFα for 20 min. At that point, the cells were washed and lysed and IκBα was immunoprecipitated. Following SDS-PAGE and membrane transfer of the immunoprecipitated material, the HA-ubiquitinated IκBα was visualized by Western blotting with an anti-HA antibody (Santa Cruz).
To assess the effect of PR-39 peptide treatment on IκBα ubiquitination in intact cells, a stable ECV304-derived cell line expressing HA-tagged ubiquitin was generated. […] HA-Ub expressing ECV304 cells were exposed to 1 ng/ml TNF-α in the presence (+) or absence (−) of 10 μM PR-39 pretreatment. 45 min later the cells were lysed and subjected to IκBα immunoprecipitation followed by Western blotting of the pellet material with anti-HA antibody. Note the presence of multiple ubiquitinated IκBα intermediaries in PR-39 peptide treated cells but not in control cells.

T1 sequence (P25963 whole entry): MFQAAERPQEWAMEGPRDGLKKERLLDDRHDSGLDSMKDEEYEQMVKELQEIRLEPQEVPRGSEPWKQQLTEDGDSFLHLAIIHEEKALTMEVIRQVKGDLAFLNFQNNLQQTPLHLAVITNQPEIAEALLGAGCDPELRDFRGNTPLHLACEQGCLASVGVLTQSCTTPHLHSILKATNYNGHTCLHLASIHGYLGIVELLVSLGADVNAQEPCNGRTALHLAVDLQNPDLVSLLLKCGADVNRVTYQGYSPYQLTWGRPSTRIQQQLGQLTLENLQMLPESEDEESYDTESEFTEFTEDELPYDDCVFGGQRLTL
T1 sequence (P55072 2-806 limits assumed): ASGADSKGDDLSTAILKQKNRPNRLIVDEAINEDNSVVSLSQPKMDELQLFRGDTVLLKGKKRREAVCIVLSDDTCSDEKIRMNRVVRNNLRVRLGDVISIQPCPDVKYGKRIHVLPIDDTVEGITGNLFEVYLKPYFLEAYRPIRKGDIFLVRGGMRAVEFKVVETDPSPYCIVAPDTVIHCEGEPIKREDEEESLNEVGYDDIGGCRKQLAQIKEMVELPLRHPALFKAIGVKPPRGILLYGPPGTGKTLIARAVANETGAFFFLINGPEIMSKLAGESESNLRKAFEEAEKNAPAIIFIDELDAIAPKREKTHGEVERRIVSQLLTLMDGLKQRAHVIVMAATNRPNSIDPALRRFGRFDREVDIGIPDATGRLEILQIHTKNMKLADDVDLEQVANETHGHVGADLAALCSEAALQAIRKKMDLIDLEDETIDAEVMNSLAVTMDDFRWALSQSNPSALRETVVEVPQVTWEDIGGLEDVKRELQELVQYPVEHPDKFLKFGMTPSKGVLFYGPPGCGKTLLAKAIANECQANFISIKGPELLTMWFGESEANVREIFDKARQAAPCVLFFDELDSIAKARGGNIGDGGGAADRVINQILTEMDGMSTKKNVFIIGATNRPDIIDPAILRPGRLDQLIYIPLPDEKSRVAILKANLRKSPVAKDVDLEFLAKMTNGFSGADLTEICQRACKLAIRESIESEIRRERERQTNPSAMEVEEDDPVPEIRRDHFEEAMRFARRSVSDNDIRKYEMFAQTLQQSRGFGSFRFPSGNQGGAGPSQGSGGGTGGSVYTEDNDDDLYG

As for “RRRPRPPYLPRPRPPPFFPPRLPPRIPPGFPPRFPPRFP [PR-39]”, in data set [1], the IκBα-VCP binding result is “does not inhibit IκBα-VCP binding”. For the same sequence, the cell counts result in data set [2] was “lack of significant growth inhibition”. Moreover, the “amount of phosphorylated IκBα” value in data set [3] is listed as “increased the amount of the phosphorylated form of IκBα”. For the same sequence, the “ubiquitinated IκBα in cells” value in data set [4] is listed as “accumulation of more ubiquitinated IκBα complexes”.
